# Source: PMC11435769, “Entrapment of Cyanase from Thermomyces lanuginosus Using Biomimetic Silica and Its Application for Cyanate Bioremediation” (Polymers, 2024)
# System: N#CO
# Experiment: purified protein
# Type: biochemical, Thermomyces lanuginosus
# Settings: free enzyme, standard assay: co-substrate bicarbonate (0.2 mL of 15 mM NaHCO3 in 1 mL), 50 mM Tris-HCl pH 8, 60 °C
substance,measurement,value
TlCyn (Thermomyces lanuginosus),Km,440 µM
same,kcat,18400 s⁻¹
same,kcat/Km,4.19e+07 M⁻¹ s⁻¹
